Reference: paper PMC7946950
Read-outs that look alike come from different tables or passages of the source.

Experiments:
[1] = target: Coagulation Factor XIa (human) (UniProt P03951); experiment: kinetics of protease inhibition (second order rate constant k2, discontinuous method, residual protease activity); protease 5-75 nM, at least 10:1 molar ratio of AAT variant to protease (pseudo-first order), 37 °C, PPNE buffer (20 mM sodium phosphate pH 7.4, 100 mM NaCl, 0.1 mM EDTA, 0.1% polyethylene glycol 8000)
[2] = target: thrombin (human); experiment: as above
[3] = target: Coagulation Factor XIa (human) (UniProt P03951); experiment: as above; remark: listed apart in the source
[4] = target: Coagulation Factor XIa (human) (UniProt P03951); experiment: as above; remark: listed apart in the source
[5] = target: Coagulation Factor XIa (human) (UniProt P03951); experiment: stoichiometry of inhibition (SI) titration, residual FXIa activity; varying ratios of AAT variant to FXIa incubated at ambient temperature for 2 h; residual FXIa activity determined at 37 °C; regression to zero activity
[6] = target: thrombin (human); experiment: kinetics of protease inhibition (second order rate constant k2, discontinuous method, residual protease activity); protease 5-75 nM, at least 10:1 molar ratio of AAT variant to protease (pseudo-first order), 37 °C, PPNE buffer (20 mM sodium phosphate pH 7.4, 100 mM NaCl, 0.1 mM EDTA, 0.1% polyethylene glycol 8000); remark: listed apart in the source
[7] = target: Activated Protein C (human); experiment: as above
[8] = target: kallikrein (human); experiment: as above
[9] = target: Factor XIIa (human); experiment: as above
[10] = target: Factor Xa (human); experiment: as above

| k2 (second order rate constant of inhibition) [3] | k2 (second order rate constant of inhibition) [4] [M⁻¹ s⁻¹] | stoichiometry of inhibition (SI) [5] | Sequence | also measured |
| --- | --- | --- | --- | --- |
| 38000 | – | – | AAT M358R/PRSLD, from the pBAD P2'/P3' bacterial expression library (designed binder) | – |
| – | 34000 | 12.7 | AAT M358R/HASTGQ, cleavable GST fusion system (designed binder) | – |
| 45000 | – | – | AAT M358R/PRSTE, from the pBAD P2'/P3' bacterial expression library (designed binder) | – |

More lines, now with the values behind:

| Sequence | k2 (second order rate constant of inhibition) [3] | k2 (second order rate constant of inhibition) [4] [M⁻¹ s⁻¹] | stoichiometry of inhibition (SI) [5] | also measured |
| --- | --- | --- | --- | --- |
| AAT M358R (alpha-1 antitrypsin M358R), arabinose-inducible system (natural protein) | 180000 M⁻¹ s⁻¹ | – | – | k2 (second order rate constant of inhibition) [1]: 190000 M⁻¹ s⁻¹; k2 (second order rate constant of inhibition) [2]: 160000 M⁻¹ s⁻¹ |
| AAT M358R (alpha-1 antitrypsin M358R), cleavable GST fusion system (natural protein) | 170000 M⁻¹ s⁻¹ | 160000 | 2.1 | k2 (second order rate constant of inhibition) [6]: 210000 M⁻¹ s⁻¹; k2 (second order rate constant of inhibition) [7]: 40000 M⁻¹ s⁻¹; k2 (second order rate constant of inhibition) [8]: 40000 M⁻¹ s⁻¹; k2 (second order rate constant of inhibition) [9]: 23000 M⁻¹ s⁻¹; k2 (second order rate constant of inhibition) [10]: 35000 M⁻¹ s⁻¹ |
| AAT M358R/QSIIS, arabinose-inducible system (designed binder) | – | – | – | k2 (second order rate constant of inhibition) [2]: 100000 M⁻¹ s⁻¹ |
| AAT M358R/PRSTE, cleavable GST fusion system (designed binder) | – | 41000 | 3.3 | k2 (second order rate constant of inhibition) [6]: 1200 M⁻¹ s⁻¹ |
